6 molecules from US8343503B2, “Contiguous overlapping peptides for treatment of birch pollen allergy” (Anergis S.A., priority 2009, dated 2013) can be followed below.

Data set [1] concerns birch pollen allergic volunteers. The settings on record: human, in vivo.
Experimental: (§1) The allergenic response of the peptides was evaluated in vivo by SPT with each of the 5 peptides (AllerT1, AllerT2, AllerT3, AllerT4 and AllerT5) and with the 2 sets (AllerT1-3 and AllerT4-5) on all patients. For each peptide, a 20 μl drop was applied on the forearm at 3 different concentrations (10, 1 and 0.1 μM). […] The weal diameter was evaluated by taking the maximal diameter. SPT was considered positive when the weal diameter was 4 mm or more with an erythema (Hoffmann, A. et al., J Allergy Clin Immunol, 99(2):227-32 (1997). Reactions resulting in a weal diameter below 4 mm, while exceeding 2 mm, were also recorded and classified as “dubious”.
For data set [2], the system named is Bet v 1 specific IgE. As to the kind of experiment: Competition ELISA: IgE binding of COPs compared to r Bet v 1. The settings on record: for competition with Bet v 1 for IgE binding / residual IgE binding: sera from three allergic patients (data not shown); for competition for IgE binding to coated r Bet v 1: serial dilutions starting at 10 μM pre-incubated with serum of birch pollen allergic subjects. More on the design: species or system human. Here is the method: Recombinant Bet v 1 at 0.5 μg/ml (r Bet v 1 obtained from Biomay, Austria) was coated overnight on 96-well Nunc Maxisorp® immunoplates (Life Technologies, Basel, Switzerland). After blocking with 1% BSA, ten-fold dilutions of patient serum were added. […] The sera of three allergic patients were selected for high IgE level and clear signal over background and used to test for competition with the peptides. Serial dilutions of each COP, namely AllerT1, AllerT2, AllerT3, AllerT4, AllerT5, AllerT6, AllerT7 and AllerT8, or mixtures of AllerT1-3, AllerT4-5 and AllerT6-8, starting at 10 μM, were pre-incubated with the three selected sera overnight at 4° C. Sera were then incubated on r Bet v 1 coated 96-well plates and residual IgE binding was determined as described above. r Bet v 1 dilutions were used as control for inhibition, whereas BSA was used as control for possible non-specific inhibition.
For orientation: ELISA stands for enzyme-linked immunosorbent assay.

Data set [3] deals with birch pollen allergic volunteers. The data set can be described thus: Skin prick tests (SPT) of allergic patients. The settings on record: for Positive skin reactions (subjects) / Reactivity lower than defined threshold (dubious) (subjects): 20 volunteers.
Experimental: as §1
Data set [4] concerns basophils (IgE-positive cells) in blood from a birch pollen allergic donor. As to the kind of experiment: Basophil degranulation test (Basotest). In kind it is cell-based, human. The conditions noted are these: blood of birch pollen allergic donor; r Bet v 1 0.0025-25 nano-molar, COPs starting 10 fold higher; FIG. 4. How it is done: Basotest® (ORPEGEN Pharma Heidelberg, Germany) was used for the quantitative determination of in vitro basophile degranulation. Heparinized blood (100 μl) from a birch pollen allergic donor was first incubated with a stimulation buffer for 20 min at 37° C., and then with or without chemotactic peptide formylmethionylleucylphenylalanine (fMLP) as positive and negative controls respectively. Aliquots of blood were incubated in parallel with 100 μl allergen solution diluted in a saline solution for 20 min at 37° C. A dose response curve was performed with 25, 2.5, 0.25, 0.025 and 0.0025 nano-molar r Bet v 1 as well as starting 10 fold higher with AllerT mixes (AllerT1-T3, AllerT4-5 and AllerT6-8). The activation process was stopped by incubating the blood samples at 4° C. for 10 min. The samples were then incubated for 20 min at +4° C. with 20 μl of phycoerythrin (PE)-conjugated anti-IgE and fluorescein isothyocyanate (FITC)-conjugated anti-gp53 (CD63). Erythrocytes were subsequently removed by the addition of 2 ml of lysing solution (Becton-Dickinson). Cells were washed twice with PBS solution and resuspended in 200 μl of PBS solution and analyzed within 1 h by cytofluorimetry (FASCalibur, BectonDickinson). The basophile population was gated on the PE anti-IgE positive cells and the expression of gp53 (CD63) was analyzed on this population. […]

[5] abbreviates: dilution 1:1, weal 4 mm or more with erythema.

Where two headings read alike, the source gives them in different places. No end group written: not given here.

Turning to `CC[C@H](C)[C@H](NC(=O)[C@H](C)NC(=O)[C@H](CCC(N)=O)NC(=O)[C@@H]1CCCN1C(=O)[C@H](C)NC(=O)[C@@H](NC(=O)[C@H](CCCCN)NC(=O)[C@@H]1CCCN1C(=O)[C@H](Cc1ccccc1)NC(=O)[C@H](CC(C)C)NC(=O)[C@H](CC(N)=O)NC(=O)[C@H](CC(=O)O)NC(=O)CNC(=O)[C@H](CC(=O)O)NC(=O)[C@H](CC(C)C)NC(=O)[C@@H](NC(=O)[C@H](Cc1ccccc1)NC(=O)[C@H](C)NC(=O)[C@H](CCCCN)NC(=O)[C@H](Cc1ccccc1)NC(=O)[C@H](CC(C)C)NC(=O)[C@H](CCCNC(=N)N)NC(=O)[C@H](C)NC(=O)[C@H](C)NC(=O)[C@@H]1CCCN1C(=O)[C@@H](NC(=O)[C@@H](NC(=O)[C@H](CO)NC(=O)[C@@H](NC(=O)[C@@H](NC(=O)[C@H](CCC(=O)O)NC(=O)[C@@H](NC(=O)[C@H](CCC(=O)O)NC(=O)[C@H](Cc1ccc(O)cc1)NC(=O)[C@H](CC(N)=O)NC(=O)[C@H](Cc1ccccc1)NC(=O)[C@@H](NC(=O)CN)C(C)C)[C@@H](C)O)[C@@H](C)O)[C@@H](C)O)C(C)C)[C@@H](C)CC)[C@@H](C)CC)C(C)C)C(=O)N[C@@H](CO)C(=O)N[C@@H](CO)C(=O)N[C@H](C(=O)N[C@@H](CCC(=O)O)C(=O)N[C@@H](CC(N)=O)C(=O)N[C@H](C(=O)N[C@@H](CCC(=O)O)C(=O)NCC(=O)N[C@@H](CC(N)=O)C(=O)NCC(=O)NCC(=O)O)[C@@H](C)CC)C(C)C` [AllerT1], in data set [1], the “Positive skin reactions (subjects)” value was 0.
On the same count and under the same terms, the figure for “VATPDGGSILKISNKYHTKGDHEVKAEQVKASKEMGETLLRAVESYLLAHSDAYN [AllerT3]” is 0.

B1: AllerT5: SEQ ID NO: 5, aa 65-160 of SEQ ID 9 (Bet v 1) contiguous overlapping peptide (peptide)
chain: FKYVKDRVDEVDHTNFKYNYSVIEGGPIGDTLEKISNEIKIVATPDGGSILKISNKYHTKGDHEVKAEQVKASKEMGETLLRAVESYLLAHSDAYN
Consider B1, for which the “competition with Bet v 1 for IgE binding / residual IgE binding” value in data set [2] was “do not show such binding”. The “competition for IgE binding to coated r Bet v 1” value (from here on “competition for IgE binding”) in data set [2] (FIG. 1) is listed as “comparable result”. Also, the “Positive skin reactions (subjects)” value in data set [3] (setting [5]), in data set [3] (dilution 1:10) and in data set [3] (dilution 1:100) was 0 throughout. For the same molecule, the “Reactivity lower than defined threshold (dubious) (subjects)” value (“Reactivity lower than defined threshold” below) worked out at 1 in data set [3] (dilution 1:1, weal below 4 mm); 0 in data set [3] (dilution 1:10); 0 in data set [3] (dilution 1:100).

B2: AllerT4: SEQ ID NO: 4, aa 2-85 of SEQ ID 9 (Bet v 1) contiguous overlapping peptide (peptide)
chain: GVFNYETETTSVIPAARLFKAFILDGDNLFPKVAPQAISSVENIEGNGGPGTIKKISFPEGFPFKYVKDRVDEVDHTNFKYNYS
For B2, the “competition with Bet v 1 for IgE binding / residual IgE binding” value in data set [2] is reported as “do not show such binding”. The “competition for IgE binding” value in data set [2] (FIG. 1) is recorded as “comparable result”. In addition, the “Positive skin reactions (subjects)” value in data set [3] (setting [5]), in data set [3] (dilution 1:10) and in data set [3] (dilution 1:100) was 0 each time. Further, the “Reactivity lower than defined threshold” value in data set [3] (dilution 1:1, weal below 4 mm) is listed as 0; in data set [3] (dilution 1:10) it was 0; in data set [3] (dilution 1:100), 1.

B3: AllerT2: SEQ ID NO: 2, aa 48-118 of SEQ ID 9 (Bet v 1) contiguous overlapping peptide (peptide)
chain: NGGPGTIKKISFPEGFPFKYVKDRVDEVDHTNFKYNYSVIEGGPIGDTLEKISNEIKIVATPDGGSILKIS
With B3, the “competition for IgE binding” value in data set [2] (FIG. 1) is listed as “no competition”. The “Positive skin reactions (subjects)” value in data set [3] (setting [5]), in data set [3] (dilution 1:10) and in data set [3] (dilution 1:100) was 0 in each case. Besides, the “Reactivity lower than defined threshold” value in data set [3] (dilution 1:1, weal below 4 mm) is given as 0; in data set [3] (dilution 1:10) it was 0; in data set [3] (dilution 1:100), 0.

B4: r Bet v 1: Purified recombinant Bet v 1, birch pollen major allergen, purchased from BIOMAY; SEQ ID 9, Swissprot P15494 (protein)
chain: MGVFNYETETTSVIPAARLFKAFILDGDNLFPKVAPQAISSVENIEGNGGPGTIKKISFPEGFPFKYVKDRVDEVDHTNFKYNYSVIEGGPIGDTLEKISNEIKIVATPDGGSILKISNKYHTKGDHEVKAEQVKASKEMGETLLRAVESYLLAHSDAYN
Turning to B4, the IC50 in data set [2] (depending on the serum of the donor, FIG. 1, read-out: concentration competing with IgE present in the sera (50% inhibition)) was in the range of 0.0001 to 10 µM. In addition, the SPT result in data set [3] (birch pollen extract 100,000 SQ, recombinant Bet v 1 1 μM) is reported as “positive in all volunteers”. Moreover, the “Positive skin reactions (subjects)” value in data set [3] (setting [5]) is 20; in data set [3] (dilution 1:10), 16; in data set [3] (dilution 1:100) it was 2. Also, in data set [4], the “basophil degranulation (IgE-positive cells expressing CD63)” value is given as “concentration dependent manner”.
